From publication PMC11096021 (Immunity, 2024) come the findings set out here.

The target of the assay is A/Perth/16/2009 H3 trimer (biotinylated, for BLI) (Influenza A virus A/Perth/16/2009 (H3N2), strain, biotin on the avi tag (BirA)). In words: BLI. The note with it: both partners purified.

B1: 09–1B12 Fab (mature; Lys-C digest of recombinant IgG, used for BLI) (Fab, V domains shown)
VH: QVQLVQSAPEVKRPGASVRLSCKASGYTFNTYGIIWVRQAPGQGLEWMGWISAYTGNTNYAQKVQGRVTMTTDITTSTAYLELRGLRSDDTAVYYCARGLLQGAVILDSYHYALDFWGQGTTVTVSS
VL: EIVLTQSPGTLSLSPGERATLSCRASQSVTNRFIAWYQHKPGQSPRLLIYGASSRATGIPDRFSGRGSGTDFTLTISRLEPEDFAVYYCQQYDTSPRWTFGQGTKLEIK
Take B1: the binding result is “binds”.
